Laboratory results reported in the supplement of paper PMC10724198.
± gives the standard deviation of the averaged measurements.

system: Saccharomyces cerevisiae; assay: protein stability index of tFT-peptide fusion (C-terminal peptide) (PSI (0-1 scale)); higher = more stable (slower turnover); details: genetic background: wild type; temperature: 30 C
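Also: PSI is a weighted mean of sequencing reads over stability bins, variants kept only with over 10 reads, mCherry proximal and sfGFP distal, peptide attached via GGGS linker.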

Sequence | protein stability index
FSSSSLFFSRTL | 0.677 ± 0.052
APGSPLDPLTMF | 0.6535 ± 0.0041
LALLGPCPPPIH | 0.741 ± 0.083
ACSLGQSVLVCR | 0.611 ± 0.02
APTQANLRSSRS | 0.73 ± 0.022
RYKISKKERIKK | 0.663 ± 0.072
HHRVLRCNNPFR | 0.731 ± 0.12
HVGYLIMVYRGR | 0.646 ± 0.072
PPPRTTPYPSSL | 0.714 ± 0.055
WVRDDEYTLIFL | 0.712 ± 0.035
APLGLSFVSAVI | 0.793 ± 0.087
VVSSFHYTSRQC | 0.744 ± 0.1
KRKETIRKKNQT | 0.734 ± 0.05
AVWLGVGGRFVG | 0.781 ± 0.053
DEDIHQTIGKKG | 0.716 ± 0.056
KEWLSRDIEDAS | 0.665 ± 0.027
SEWFETRNPMSI | 0.685 ± 0.096
EGWLVDVDRIVG | 0.741 ± 0.076
HSPSHPGSPHAC | 0.7 ± 0.033
EKNRRCQKRKKK | 0.726 ± 0.054
QFMLLRWGFAIR | 0.544 ± 0.024

Sequence | protein stability index
KVIKEQNKKIDR | 0.641 ± 0.026
PPPALLAPPLPF | 0.756 ± 0.096
FPLPHVIPSPAS | 0.559 ± 0.022
PRPLPTGRFPPP | 0.669 ± 0.028
DHVSVFSFVCFL | 0.633 ± 0.015
GVGGEGRNDALI | 0.635 ± 0.037
LRALLSHPRRCA | 0.625 ± 0.034
RVGGGSGGEGRG | 0.6553 ± 0.0043
VQSGIRLIFGRA | 0.545 ± 0.014
GFGVAGLVGKGV | 0.662 ± 0.053
SPPPRHLLSPRH | 0.697 ± 0.0077
SGRGLPLGGAFD | 0.727 ± 0.026
WSVAVVWDALFG | 0.699 ± 0.04
RLRRPSSGPFMF | 0.685 ± 0.037
PPASPPAYVTHP | 0.685 ± 0.049
AIRRNVYSCVYG | 0.603 ± 0.032
VIGGRQGVVRHR | 0.68 ± 0.025
PISSYPPLPAPR | 0.718 ± 0.06
PPTPSSPRPMAP | 0.818 ± 0.14
RINKRKKKKDKG | 0.6136 ± 0.00074
VWVWATGWGARG | 0.7369 ± 0.0038

Sequence | protein stability index
PAPPCPGTSPFP | 0.7055 ± 0.001
CPSIVCSPTDPM | 0.679 ± 0.061
HFWGCCRRRCLK | 0.66 ± 0.051
MVVEGLERWGRV | 0.723 ± 0.045
KKDMCRSSFPDC | 0.686 ± 0.007
KRARLWQKRVEK | 0.754 ± 0.14
GMFVCGVGVVGG | 0.704 ± 0.19
SVFPSAVCSLGC | 0.6895 ± 0.005
PPPPLPPFPPHP | 0.659 ± 0.017
GRCQSPRASPSG | 0.584 ± 0.013
SPPPIPPPPPSR | 0.726 ± 0.042
LWIVLFRKCELP | 0.592 ± 0.018
VSGWDCEGDWVA | 0.76 ± 0.0096
VFCVFACLCIVF | 0.522 ± 0.091
YLVSYLSLFLSF | 0.504 ± 0.029
PTHPSRLRLFSA | 0.612 ± 0.024
KGSWCSPRGELR | 0.6552 ± 0.0059
DRPSPGLALGGP | 0.7314 ± 0.0023
GFSNKKNVPLTR | 0.568 ± 0.066
RGISAAAAPGEG | 0.706 ± 0.024
LWPYSRYSFSPP | 0.726 ± 0.02

Sequence | protein stability index
RYPLRPLLLPPP | 0.741 ± 0.16
GVGRPSDGPFRA | 0.666 ± 0.047
PPLPLSTLFLSA | 0.712 ± 0.041
TVVTIGAHIGPR | 0.78 ± 0.048
RVPLSPSLRYFV | 0.653 ± 0.026
YILSSFWTEVDS | 0.703 ± 0.093
VPSVGFSVHLLP | 0.692 ± 0.021
GLALSPFPTLSL | 0.64677 ± 0.00031
WRSGGGGGPAGV | 0.6762 ± 0.0032
FCKTKVRDKATR | 0.73 ± 0.035
SPVSPTSNSPAC | 0.649 ± 0.085
VTLTPPVLYTSL | 0.647 ± 0.059
IYNGMLREEKSL | 0.728 ± 0.017
RRQWVLEQEGGT | 0.732 ± 0.056
PHNRSNSWPNPR | 0.714 ± 0.054
RVNTFHANKWRW | 0.7134 ± 0.0013
WGRRNFLPNSPR | 0.67 ± 0.049
RNLPAHQARPDE | 0.6751 ± 0.003
